Assay [1] concerns the target T1, cynomolgus monkey IgE (in cynomolgus serum, Harlan Sera-Lab Ltd) (cynomolgus monkey).
T1 construct: Serum was the source of IgE; eight serum samples; also called cynomolgus IgE; Cyno 1 to Cyno 8 serum samples
Put plainly: capture ELISA, Test 1, Cyno 1. Here is the method:
(§1) Wells were washed once with 150 μL/well wash buffer (0.05% Tween-20, Sigma, Cat. No. P7949/TBS) then blocked with 150 μL/well 1% BSA (Sigma, Cat. No. A7030) in TBS for 2 hours at room temperature. Wells were washed twice with 150 μL wash buffer. 50 μL human (in-house donors) or cynomolgus serum (Harlan Sera-Lab Ltd, Loughborough) was added from neat to at least 1:16 dilution in 1% BSA/0.05% Tween-20/TBS diluent buffer. […] Wells were incubated for 2 hours at 25° C. before washing (3×150 μL wash buffer). […] Wells were incubated for 1 hour at 25° C. then washed (3×150 μL wash buffer). Streptavidin-HRP (Amersham Bioscience, Cat. No. RPN 1231) diluted 1:1000 in diluent buffer was added to all wells and incubated for 45 minutes at room temperature. Wells were washed (3×150 […] wash buffer). 50 μL OPD (Dako, Cat. No. S2045) was added to all wells and the color allowed to develop for 10 minutes before stopping the reaction with 50 μl 0.6M H₂SO₄ and the absorbance measured at 490 nm.

Assay [2] deals with T1, cynomolgus monkey IgE (in cynomolgus …). The assay is described as follows: capture ELISA, Test 1, Cyno 2. On the procedure:
as §1
A general note: ELISA stands for enzyme-linked immunosorbent assay.

The target is the same in assay [3]. The assay is described as follows: capture ELISA, Test 1, Cyno 3. Here is the method: as §1
Assay [4] shares this target. The assay is described as follows: capture ELISA, Test 1, Cyno 4. On the procedure: as §1
For assay [5] the target is unchanged. Put plainly: capture ELISA, Test 1, Cyno 5. On the procedure: as §1
The target is the same in assay [6]. The assay is described as follows: capture ELISA, Test 1, Cyno 6. On the procedure:
as §1

Assay [7] shares this target. Put plainly: capture ELISA, Test 1, Cyno 7. Here is the method: as §1
Assay [8] has as its target T2, human IgA (Sigma, Cat. No. I2636) (human).
T2 chain: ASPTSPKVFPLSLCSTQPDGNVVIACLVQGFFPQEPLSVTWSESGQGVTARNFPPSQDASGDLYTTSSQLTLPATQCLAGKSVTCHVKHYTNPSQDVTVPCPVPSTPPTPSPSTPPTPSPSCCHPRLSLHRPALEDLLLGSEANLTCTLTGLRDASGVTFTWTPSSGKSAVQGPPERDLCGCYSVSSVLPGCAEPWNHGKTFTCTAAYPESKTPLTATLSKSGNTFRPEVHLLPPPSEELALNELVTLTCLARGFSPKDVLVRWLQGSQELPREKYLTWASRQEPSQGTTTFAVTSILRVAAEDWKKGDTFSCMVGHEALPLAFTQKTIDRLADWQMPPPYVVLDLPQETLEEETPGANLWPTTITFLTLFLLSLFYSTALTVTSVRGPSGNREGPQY
Put plainly: ELISA on coated immunoglobulin. Here is the method: (§2) Wells were washed 3× with 150 μL wash buffer (0.05% Tween-20 (Sigma, Cat. No. P7949)/PBS) then blocked with 150 μL/well blocking buffer (2.5% BSA (Sigma, Cat. No. A7030)/PBS) for 2 hours at room temperature. Wells were washed 3× with 150 μL wash buffer/well. […] Antibodies were diluted in diluent buffer (PBS/1% BSA/0.05% Tween-20) and this was added to blank control wells (duplicate wells for each secondary antibody used). Antibodies were incubated for 2 hours at room temperature. Wells were washed 3× with 150 μL wash buffer/well. Binding of control antibodies to immunoglobulin was detected with anti-mouse IgG-HRP conjugate (Sigma, Cat. No. A4416) diluted 1:8000 in diluent buffer. 50 μL/well was added to control antibody and blank wells. Wells were incubated for 1 hour at room temperature, then washed 3× with 150 μL wash buffer/well. 50 μl OPD (Dako, Cat. No. […] Wells were incubated for 1 hour at room temperature then washed 3× with 150 μL wash buffer/well. Streptavidin-HRP (Amersham Bioscience, Cat. No. RPN 1231) diluted 1:2000 in diluent buffer was added to all wells and incubated for 45 minutes at room temperature. Wells were washed (3×150 μL wash buffer).

Assay [9] addresses T3, human IgG1 (Biodesign, Cat. No. A50183H) (human).
T3 construct: Bought immunoglobulin coated on the plate
The assay is described as follows: ELISA on coated immunoglobulin. On the procedure: as §2

For assay [10], the target named is T4, human IgG3 (Biodesign, Cat. No. A50186H) (human).
T4 construct: Bought immunoglobulin coated on the plate
Put plainly: ELISA on coated immunoglobulin. On the procedure:
as §2

Assay [11] concerns the target T1, cynomolgus monkey IgE (in cynomolgus …). Put plainly: capture ELISA, Test 2, Cyno 1. On the procedure: as §1
For assay [12] the target is unchanged. The assay is described as follows: capture ELISA, Test 2, Cyno 2. On the procedure: as §1
For assay [13] the target is unchanged. The assay is described as follows: capture ELISA, Test 2, Cyno 3. On the procedure:
as §1

The target is the same in assay [14]. Put plainly: capture ELISA, Test 2, Cyno 4. On the procedure: as §1
Assay [15] has the same target. Put plainly: capture ELISA, Test 2, Cyno 5. On the procedure: as §1
The target is the same in assay [16]. Put plainly: capture ELISA, Test 2, Cyno 6. Here is the method:
as §1

Assay [17] shares this target. The assay is described as follows: capture ELISA, Test 2, Cyno 7. Here is the method:
as §1

Assay [18] has the same target. Put plainly: capture ELISA, Test 2, Cyno 8. On the procedure:
as §1

B1: 6.605.1 (recombinant) (antibody, human IgG2, kappa, V domains shown)
VH: QVHLVQSGAEVKMPGASVKVSCKASGYTFTSYGISWVRQAPGQGLEWMGWISAYNGNTNYAQKLQGRITMTTDTSTSTAYMDLRSLRSDDTAVYYCARDGDYYDPFDYWGQGTLVTVSS
VL: DIQMTQSPSSLSASVGDRVTITCRTSQSISNWLNWYQQKPGKAPKLLIYGASTLKSGVPSRFSGSESGTDFTLTISSLQPEDFATYYCQQSYSTPPTFGQGTKVEIKR
notes: Human IgG2 kappa; leader omitted; also called recombinant 6.605.1
For the molecule B1, the IgE concentration detected came out at 120 ng/mL in assay [1]; 91 ng/mL in [2]; 107 ng/mL in assay [3]; 0 ng/mL in [4]; 140 ng/mL in assay [5]; 0 ng/mL in assay [6]. Further, in assay [7], the IgE concentration detected came out at 0 ng/mL. Further, the A290 nm amounted to 0.04 A290 nm in [8], 0.07 A290 nm in [9] and 0.05 A290 nm in [10].

B2: 6.605.1 Hc-H3Q, M13K, D82E Lc-T25A, T53S (antibody, human IgG2, kappa, V domains shown)
VH: QVQLVQSGAEVKKPGASVKVSCKASGYTFTSYGISWVRQAPGQGLEWMGWISAYNGNTNYAQKLQGRITMTTDTSTSTAYMELRSLRSDDTAVYYCARDGDYYDPFDYWGQGTLVTVSS
VL: DIQMTQSPSSLSASVGDRVTITCRASQSISNWLNWYQQKPGKAPKLLIYGASSLKSGVPSRFSGSESGTDFTLTISSLQPEDFATYYCQQSYSTPPTFGQGTKVEIKR
notes: Human IgG2 kappa; leader omitted; also called 6.605.1 (H3Q, M13K, D82E-T25A, T53S); 6.605.1 QKE/AS
B2: the IgE concentration detected was 133 ng/mL in [1]; 103 ng/mL in assay [2]; 122 ng/mL in assay [3]; 0 ng/mL in [4]; 173 ng/mL in [5]; 0 ng/mL in [7]. Besides, the A290 nm in assay [8] amounted to 0.04 A290 nm; in assay [9] it was 0.07 A290 nm; in [10], 0.04 A290 nm.

B3: 5.396.1 (recombinant) (antibody, human IgG2, kappa, V domains shown)
VH: QVQLQQWGAGLLKPSETLSLTCAVYGGSFSGYYWSWIRQPPGKGLEWIGEIHHSGSTNYNPSLKSRVTISVDTSKNQFSLKLSSVTAADTAVYYCARDNWNDSFYYYYGMDVWGQGTTVTVSS
VL: DIQMTQSPSSLSASVGDRVTITCRASQGISNHLAWFQQKPGKAPKSLIYAASSLQSGVPSKFSGSGSGTDFTLTISSLQPEDFATYYCQQYNRHPFTFGPGTKVDIKR
notes: Fully human IgG2 kappa, expressed in 293 Freestyle cells; also called recombinant 5.396.1
With B3, the IgE concentration detected turned out to be 30 ng/mL in assay [1]; 0 ng/mL in assay [2]; 0 ng/mL in [4]; 37 ng/mL in [5]; 3 ng/mL in assay [6]; 0 ng/mL in assay [7]. Further, the A290 nm in assay [8] came out at 0.04 A290 nm; in [9], 0.07 A290 nm; in assay [10] it was 0.05 A290 nm.

B4: 5.396.1 Hc-S103N Lc-K61R (antibody, human IgG2, kappa, V domains shown)
VH: QVQLQQWGAGLLKPSETLSLTCAVYGGSFSGYYWSWIRQPPGKGLEWIGEIHHSGSTNYNPSLKSRVTISVDTSKNQFSLKLSSVTAADTAVYYCARDNWNDNFYYYYGMDVWGQGTTVTVSS
VL: DIQMTQSPSSLSASVGDRVTITCRASQGISNHLAWFQQKPGKAPKSLIYAASSLQSGVPSRFSGSGSGTDFTLTISSLQPEDFATYYCQQYNRHPFTFGPGTKVDIKR
notes: Human IgG2 kappa; leader omitted; also called 5.396.1 (S103N/K61R); 5.396.1 S103N/K61R
Turning to B4, the IgE concentration detected in assay [1] is 41 ng/mL; in assay [2], 0 ng/mL; in assay [3], 39 ng/mL; in assay [4] it was 0 ng/mL; in [5], 57 ng/mL; in assay [6] it was 0 ng/mL. Further, the IgE concentration detected is 0 ng/mL in assay [7]; 57 ng/mL in assay [11]; 39 ng/mL in assay [12]; 53 ng/mL in [13]; 0 ng/mL in assay [14]; 102 ng/mL in assay [15]. In addition, the IgE concentration detected in assay [16], in assay [17] and in assay [18] was 0 ng/mL each time. Further, the A290 nm stood at 0.04 A290 nm in assay [8], 0.08 A290 nm in assay [9] and 0.05 A290 nm in [10].

Source of the values: patent publication US20090117124A1 (Pfizer, published 2009).
